According to article PMC10352329 (Nature Communications, 2023):
Values belong to the binder of their own block, whether it stands above or below them. Where no end group is shown, it is not given here.

Key:
Conditions in all cases: both partners purified
[1] = target: T1, K12/K16-acetylated human histone H4 (as it stands in H4acNuc) (human, UniProt P62805 1-103, acetyl-lysine at K12 and K16); assay: cryo-EM structure; p300_(BRPHZT) or CBP_(BRPHZT), acetyl-CoA and nucleosome mixed 4:6:1 in 20 mM HEPES-NaOH pH 7.2, 150 mM NaCl, 1 μM ZnCl2, 1 mM TCEP; purified and cross-linked by GraFix (glutaraldehyde)
T1 construct: human histone H4 ORF with the codons of K12 and K16 replaced by TAG for acetyllysine; The H4 chain of m6; met p300/CBP only inside the nucleosome; also called H4K12ac/K16ac; H4NTac; source: cell-free synthesis (E. coli S30 extract, genetic code reprogramming), purified, assembled into H4acNuc

[2] = target: N-terminal bromodomain of human BRD4 (residues 44–168) (human, UniProt O60885 44-168); assay: ITC; 100 µM protein in the cell, 1 mM acetylated histone NT peptide in the syringe; 25 °C; 10 mM HEPES-NaOH pH 7.4, 150 mM NaCl; single binding site model
[3] = target: T2, human p300BRP (residues 1048–1282), wild type (human, UniProt Q09472 1048-1282, fluorescently labeled with a His tag Labeling Kit (microscale thermophoresis only)); assay: as above
T2 sequence (looked up): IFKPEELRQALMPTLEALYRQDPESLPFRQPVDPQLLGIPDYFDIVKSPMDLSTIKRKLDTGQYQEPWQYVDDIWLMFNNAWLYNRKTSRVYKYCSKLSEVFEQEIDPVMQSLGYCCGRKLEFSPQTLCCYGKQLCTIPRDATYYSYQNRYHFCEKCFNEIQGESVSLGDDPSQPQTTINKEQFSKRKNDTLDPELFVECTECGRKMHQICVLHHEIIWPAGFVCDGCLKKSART

B1: human p300_(BRPHZT) (residues 1048–1836) (domain or fragment)
chain: IFKPEELRQALMPTLEALYRQDPESLPFRQPVDPQLLGIPDYFDIVKSPMDLSTIKRKLDTGQYQEPWQYVDDIWLMFNNAWLYNRKTSRVYKYCSKLSEVFEQEIDPVMQSLGYCCGRKLEFSPQTLCCYGKQLCTIPRDATYYSYQNRYHFCEKCFNEIQGESVSLGDDPSQPQTTINKEQFSKRKNDTLDPELFVECTECGRKMHQICVLHHEIIWPAGFVCDGCLKKSARTRKENKFSAKRLPSTRLGTFLENRVNDFLRRQNHPESGEVTVRVVHASDKTVEVKPGMKARFVDSGEMAESFPYRTKALFAFEEIDGVDLCFFGMHVQEYGSDCPPPNQRRVYISYLDSVHFFRPKCLRTAVYHEILIGYLEYVKKLGYTTGHIWACPPSEGDDYIFHCHPPDQKIPKPKRLQEWYKKMLDKAVSERIVHDYKDIFKQATEDRLTSAKELPYFEGDFWPNVLEESIKELEQEEEERKREENTSNESTDVTKGDSKNAKKKNNKKTSKNKSSLSRGNKKKPGMPNVSNDLSQKLYATMEKHKEVFFVIRLIAGPAANSLPPIVDPDPLIPCDLMDGRDAFLTLARDKHLEFSSLRRAQWSTMCMLVELHTQSQDRFVYTCNECKHHVETRWHCTVCEDYDLCITCYNTKNHDHKMEKLGLGLDDESNNQQAAATQSPGDSRRLSIQRCIQSLVHACQCRNANCSLPSCQKMKRVVQHTKGCKRKTNGGCPICKQLIALCCYHAKHCQENKCPVPFCLNIKQKLRQQQLQHRLQQAQMLRRRMASMQ
modifications: autoacetylated form containing K1542ac, K1546ac, K1549ac, K1550ac, K1551ac, K1554ac, K1555ac, K1558ac and K1560ac
- binding result [1]: binds

B2: human CBP_(BRPHZT) (residues 1084–1873) (domain or fragment)
chain: IFKPEELRQALMPTLEALYRQDPESLPFRQPVDPQLLGIPDYFDIVKNPMDLSTIKRKLDTGQYQEPWQYVDDVWLMFNNAWLYNRKTSRVYKFCSKLAEVFEQEIDPVMQSLGYCCGRKYEFSPQTLCCYGKQLCTIPRDAAYYSYQNRYHFCEKCFTEIQGENVTLGDDPSQPQTTISKDQFEKKKNDTLDPEPFVDCKECGRKMHQICVLHYDIIWPSGFVCDNCLKKTGRPRKENKFSAKRLQTTRLGNHLEDRVNKFLRRQNHPEAGEVFVRVVASSDKTVEVKPGMKSRFVDSGEMSESFPYRTKALFAFEEIDGVDVCFFGMHVQEYGSDCPPPNTRRVYISYLDSIHFFRPRCLRTAVYHEILIGYLEYVKKLGYVTGHIWACPPSEGDDYIFHCHPPDQKIPKPKRLQEWYKKMLDKAFAERIIHDYKDIFKQATEDRLTSAKELPYFEGDFWPNVLEESIKELEQEEEERKKEESTAASETTEGSQGDSKNAKKKNNKKTNKNKSSISRANKKKPSMPNVSNDLSQKLYATMEKHKEVFFVIHLHAGPVINTLPPIVDPDPLLSCDLMDGRDAFLTLARDKHWEFSSLRRSKWSTLCMLVELHTQGQDRFVYTCNECKHHVETRWHCTVCEDYDLCINCYNTKSHAHKMVKWGLGLDDEGSSQGEPQSKSPQESRRLSIQRCIQSLVHACQCRNANCSLPSCQKMKRVVQHTKGCKRKTNGGCPVCKQLIALCCYHAKHCQENKCPVPFCLNIKHKLRQQQIQHRLQQAQLMRRRMATMN
- binding result [1]: binds

The next lines start with the values.

- Kd [2]: 430 ± 5 µM
Binder: PAPKK(Ac)GSK(Ac)KAVTK [di-acetylated H2B peptide K12ac/K15ac]

- Kd [3]: 200 ± 30 µM
Binder: KAVTK(Ac)AQK(Ac)KDGK [di-acetylated H2B peptide K20ac/K23ac]
